Source: the RNAGym collection of RNA variant scans (doi:10.7554/elife.80360)

B1: CPEB3 Ribozyme (parent)
chain: GGGGGCCACAGCAGAAGCGUUCACGUCGCGGCCCCUGUCAGAUUCUGGUGAAUCUGCGAAUUCUGCUGU

Variants of: B1
Assay: self-cleavage, relative activity (ratio to wild type); higher = more cleavage; co-transcriptional

Variant	self-cleavage
GGCGGCCACAGCAGAAUCGUUCACGUCGCGGCCCCUGUCAGAUUCUGGUGAAUCUGCGAAUUCUGCUGU [G3C G17U]	0.0348
GGCGGCCACAGCAGAAACGUUCACGUCGCGGCCCCUGUCAGAUUCUGGUGAAUCUGCGAAUUCUGCUGU [G3C G17A]	0.0395
GGCGGCCACAGCAGAACCGUUCACGUCGCGGCCCCUGUCAGAUUCUGGUGAAUCUGCGAAUUCUGCUGU [G3C G17C]	0.0303
GGCGGCCACAGCAGAAGCGUUCACGUCGCGGCCCCUGUCAUAUUCUGGUGAAUCUGCGAAUUCUGCUGU [G3C G41U]	0.0159
GGCGGCCACAGCAGAAGCGUUCACGUCGCGGCCCCUGUCAAAUUCUGGUGAAUCUGCGAAUUCUGCUGU [G3C G41A]	0.0418
GGCCGCCACAGCAGAAGCGUUCACGUCGCGGCCCCUGUCAGAUUCUGGUGAAUCUGCGAAUUCUGCUGU [G3C G4C]	0.137
GGCUGCCACAGCAGAAGCGUUCACGUCGCGGCCCCUGUCAGAUUCUGGUGAAUCUGCGAAUUCUGCUGU [G3C G4U]	0.0461
GGCAGCCACAGCAGAAGCGUUCACGUCGCGGCCCCUGUCAGAUUCUGGUGAAUCUGCGAAUUCUGCUGU [G3C G4A]	0.0691
GGCGACCACAGCAGAAGCGUUCACGUCGCGGCCCCUGUCAGAUUCUGGUGAAUCUGCGAAUUCUGCUGU [G3C G5A]	0.0417
GGCGUCCACAGCAGAAGCGUUCACGUCGCGGCCCCUGUCAGAUUCUGGUGAAUCUGCGAAUUCUGCUGU [G3C G5U]	0.00743
GGCGGCCACAGCAGAAGCGUUCACGUCGCGGCCCCUGUCAGAUUCUGGUGAAUCUGCGAAUUCUGCUCU [G3C G68C]	0.432
GGCGGCCACAGCAGAAGCGUUCACGUCGCGGCCCCUGUCAGAUUCUGGUGAAUCUGCGAAUUCUGCUAU [G3C G68A]	0.4
GGCGGCCACAGCAGAAGCGUUCACGUCGCGGCCCCUGUCAGAUUCUGGUAAAUCUGCGAAUUCUGCUGU [G3C G50A]	0.0909
GGCGGCCACAGCAGAAGCGUUCACGUCGCGGCCCCUGUCAGAUUCUGGCGAAUCUGCGAAUUCUGCUGU [G3C U49C]	0.149
GGCGGCCACAGCAGAAGCGUUCACGUCGCGGCCCCUGUCAGAUUCUGGGGAAUCUGCGAAUUCUGCUGU [G3C U49G]	0.039
GGCGGCCACAGCAGAAGCGUUCACGUCGCGCCCCCUGUCAGAUUCUGGUGAAUCUGCGAAUUCUGCUGU [G3C G31C]	0.0554
GGCGGCCACAGCAGAAGCGGUCACGUCGCGGCCCCUGUCAGAUUCUGGUGAAUCUGCGAAUUCUGCUGU [G3C U20G]	0.0823
GGCGGCCACAGCAGAAGCGAUCACGUCGCGGCCCCUGUCAGAUUCUGGUGAAUCUGCGAAUUCUGCUGU [G3C U20A]	0.0845
GGCGGCCACAGCAGAAGCGUUCACGUCGCGGCCCCUCUCAGAUUCUGGUGAAUCUGCGAAUUCUGCUGU [G3C G37C]	0.0266
GGCGGCCACAGCAGAAGCGUUCACGUCGCGGCCCCUUUCAGAUUCUGGUGAAUCUGCGAAUUCUGCUGU [G3C G37U]	0.0466
GGCGGCCACAGCAGAAGCGUUCACGUCGCGGCCCCUAUCAGAUUCUGGUGAAUCUGCGAAUUCUGCUGU [G3C G37A]	0.0325
GGCGGCCACAGCAGAAGCGUUCACGUCGCGGCCCCUGUCAGAUUCUGCUGAAUCUGCGAAUUCUGCUGU [G3C G48C]	0.105
GGCGGCCACAGCAGAAGCGUUCACGUCGCGGCCCCUGUCAGAUUCUGUUGAAUCUGCGAAUUCUGCUGU [G3C G48U]	0.16
GGCGGCCACAGCAGAAGCGUUCACGUCGCGGCCCCUGUCAGAUUCUGGUGAAUCUUCGAAUUCUGCUGU [G3C G56U]	0.033
GGCGGCCACAGCAGAAGCGUCCACGUCGCGGCCCCUGUCAGAUUCUGGUGAAUCUGCGAAUUCUGCUGU [G3C U21C]	0.058
GGCGGCCACAGCAGAAGCGUGCACGUCGCGGCCCCUGUCAGAUUCUGGUGAAUCUGCGAAUUCUGCUGU [G3C U21G]	0

Variant	self-cleavage
GGCGGCCACAGCAGAAGCGUACACGUCGCGGCCCCUGUCAGAUUCUGGUGAAUCUGCGAAUUCUGCUGU [G3C U21A]	0.072
GGCGGCCACAGCAGAAGCGUUCACGUCGCGGCCCCGGUCAGAUUCUGGUGAAUCUGCGAAUUCUGCUGU [G3C U36G]	0.329
GGCGGCCACAGCAGAAGCGUUCACGUCGCGGCCCCCGUCAGAUUCUGGUGAAUCUGCGAAUUCUGCUGU [G3C U36C]	0.0612
GGCGGCCACAGCAGAAGCGUUCACGUCGCGGCCCCAGUCAGAUUCUGGUGAAUCUGCGAAUUCUGCUGU [G3C U36A]	0.0318
GGCGGCCACAGCAGAAGCGUUCACGUCGCGGCCCCUGUCAGAUUCUGGUGAAUCUGCAAAUUCUGCUGU [G3C G58A]	0.0258
GGCGGCCACAGCAGAAGCGUUCACGUCGCGGCCCCUGUCAGAUUCUGGUGAAUCUGCUAAUUCUGCUGU [G3C G58U]	0.216
GGCGGCCACAGCAGAAGCAUUCACGUCGCGGCCCCUGUCAGAUUCUGGUGAAUCUGCGAAUUCUGCUGU [G3C G19A]	0.0368
GGCGGCCACAGCAGAAGCCUUCACGUCGCGGCCCCUGUCAGAUUCUGGUGAAUCUGCGAAUUCUGCUGU [G3C G19C]	0.0344
GGCGGCCACAGCAGAAGCGUUCACGUCGCGGCCCCUGUCAGAAUCUGGUGAAUCUGCGAAUUCUGCUGU [G3C U43A]	0.0425
GGCGGCCACAGCAGAAGCGUUCACGUCGCGGCCCCUGUCAGAGUCUGGUGAAUCUGCGAAUUCUGCUGU [G3C U43G]	0.104
GGCGGCCACAGCAGAAGCGUUCACGUCGCGGCCCCUGUCAGAUUCUGGUGAAGCUGCGAAUUCUGCUGU [G3C U53G]	0.0664
GGCGGCCACAGCAGAAGCGUUCACGUCGCGGCCCCUGUCAGAUUCUGGUGAACCUGCGAAUUCUGCUGU [G3C U53C]	0.0464
GGCGGCCACAGCAGAAGCGUUCACGUCGCGGCCCCUGUCAGAUUCUGGUGAAUCUGCGAAUUAUGCUGU [G3C C63A]	0.0751
GGCGGCCACAGCACAAGCGUUCACGUCGCGGCCCCUGUCAGAUUCUGGUGAAUCUGCGAAUUCUGCUGU [G3C G14C]	0.0467
GGCGGCCACAGCAAAAGCGUUCACGUCGCGGCCCCUGUCAGAUUCUGGUGAAUCUGCGAAUUCUGCUGU [G3C G14A]	0.0364
GGCGGCCACAGCAUAAGCGUUCACGUCGCGGCCCCUGUCAGAUUCUGGUGAAUCUGCGAAUUCUGCUGU [G3C G14U]	0.0909
GGCGGCCACAGCAGAAGCGUUCACGUCGCGGCCCCUGUCAGAUUCUGGUGAAUCUGAGAAUUCUGCUGU [G3C C57A]	0.0768
GGCGGCCACAGCAGAAGCGUUCACGUCGCGGCCCCUGUCAGAUUCUGGUGAAUCUGGGAAUUCUGCUGU [G3C C57G]	0.0873
GGCGGCCACAGCAGAAGCGUUCACGUCGCGGCCCCUGUCAGAUUCUGGUGAAUCUGUGAAUUCUGCUGU [G3C C57U]	0.015
GGCGGCCACACCAGAAGCGUUCACGUCGCGGCCCCUGUCAGAUUCUGGUGAAUCUGCGAAUUCUGCUGU [G3C G11C]	0.0692
GGCGGCCACAACAGAAGCGUUCACGUCGCGGCCCCUGUCAGAUUCUGGUGAAUCUGCGAAUUCUGCUGU [G3C G11A]	0.0327
GGCGGCCACAUCAGAAGCGUUCACGUCGCGGCCCCUGUCAGAUUCUGGUGAAUCUGCGAAUUCUGCUGU [G3C G11U]	0.11
GGCGGCCACAGCAGAAGCGUUCACGUCGCGGCCCCUGUCAGAUUCUGGUGAAUCUGCGAAUGCUGCUGU [G3C U62G]	0.0946
GGCGGCCACAGCAGAAGCGUUCACGUCGCGGCCCCUGUCAGAUUCUGGUGAAUCUGCGAAUCCUGCUGU [G3C U62C]	0.0572
GGCGGCCACAGCAGAAGCGUUCACGUCGCGGCCCCUGUCAGAUUCUGGUGAAUCUGCGAAUUCAGCUGU [G3C U64A]	0.0618
GGCGGCCACAGCAGAAGCGUUCACGUCGCCGCCCCUGUCAGAUUCUGGUGAAUCUGCGAAUUCUGCUGU [G3C G30C]	0.0279

Variant	self-cleavage
GGCGGCCACAGCAGAAGCGUUCACGUCGCAGCCCCUGUCAGAUUCUGGUGAAUCUGCGAAUUCUGCUGU [G3C G30A]	0.0737
GGCGGCCACAGCAGAAGCGUUCACGUCGCGGCCCCUGGCAGAUUCUGGUGAAUCUGCGAAUUCUGCUGU [G3C U38G]	0.0344
GGCGGCCACAGCAGAAGCGUUCACGUCGCGGCCCCUGACAGAUUCUGGUGAAUCUGCGAAUUCUGCUGU [G3C U38A]	0.1
GGCGGCCACAGCAGAAGCGUUCACGUCGCGGCCCCUGUCAGAUGCUGGUGAAUCUGCGAAUUCUGCUGU [G3C U44G]	0.054
GGCGGCCACAGCAGAAGCGUUCACGUCGCGGCCCCUGUCAGAUACUGGUGAAUCUGCGAAUUCUGCUGU [G3C U44A]	0.0725
GGCGGCCACAGCAGAAGCGUUCACGUCGCGGCCCCUGUCAGAUUCUGGUGAAUCUGCGAAGUCUGCUGU [G3C U61G]	0.0927
GGCGGCCACAGCAGAAGCGUUCACGUCCCGGCCCCUGUCAGAUUCUGGUGAAUCUGCGAAUUCUGCUGU [G3C G28C]	0.0181
GGCGGCCACAGCAGAAGCGUUCACGUCACGGCCCCUGUCAGAUUCUGGUGAAUCUGCGAAUUCUGCUGU [G3C G28A]	0.0239
GGCGGCCACAGCAGAAGCGUUCACGUCGCGGCCCCUGUCAGAUUCUGGUGAAUCUGCGAAUUCUCCUGU [G3C G65C]	0.0156
GGCGGCCACAGCAGAAGCGUUCACGUCGCGGCCCCUGUCAGAUUCUGGUGAAUCUGCGAAUUCUUCUGU [G3C G65U]	0.0451
GGCGGCCACAGCAGAAGCGUUCACUUCGCGGCCCCUGUCAGAUUCUGGUGAAUCUGCGAAUUCUGCUGU [G3C G25U]	0.047
GGCGGCCACAGCAGAAGCGUUCACCUCGCGGCCCCUGUCAGAUUCUGGUGAAUCUGCGAAUUCUGCUGU [G3C G25C]	0.0602
GGCGGCCACAGCAGAAGCGUUCACAUCGCGGCCCCUGUCAGAUUCUGGUGAAUCUGCGAAUUCUGCUGU [G3C G25A]	0.0214
GGCGGCCACAGCAGAAGCGUUCACGUCGCGGCCCCUGUCAGAUUCUGGUGAAUCGGCGAAUUCUGCUGU [G3C U55G]	0.0373
GGCGGCCACAGCAGAAGCGUUCACGUCGCGGCCCCUGUCAGAUUCUGGUGAAUCAGCGAAUUCUGCUGU [G3C U55A]	0.0482
GGCGGCCACAGCAGAAGCGUUCACGUCGCGGCCCCUGUCAGAUUCUGGUGAAUCCGCGAAUUCUGCUGU [G3C U55C]	0.0498
GGCGGCCACAGCAGAAGCGUUCACGUCGCGGCCCCUGUCAGAUUCAGGUGAAUCUGCGAAUUCUGCUGU [G3C U46A]	0.113
GGCGGCCACAGCAGAAGCGUUCACGUCGCGGCCCCUGUCAGAUUCCGGUGAAUCUGCGAAUUCUGCUGU [G3C U46C]	0.126
GGCGGCCACAGCAGAAGCGUUCACGUCGCGGCCCCUGUCAGAUUCUGGUGAAUCUGCGAAUUCUGAUGU [G3C C66A]	0.0406
GGCGGCCACAGCAGAAGCGUUCACGUCGCGGCCCCUGUCAGAUUCUGGUGAAUCUGCGAAUUCUGGUGU [G3C C66G]	0.0391
GGCGGCCACAGCAGAAGCGUUCACGUCGCGGCCCCUGUCAGAUUCUGGUGAAUGUGCGAAUUCUGCUGU [G3C C54G]	0.0518
GGCGGCCACAGCAGAAGCGUUCACGUCGCGGCCCCUGUCAGAUUCUUGUGAAUCUGCGAAUUCUGCUGU [G3C G47U]	0.0876
GGCGGCCACAGCAGAAGCGUUCACGUCGCGGCCCCUGUCAGAUUCUAGUGAAUCUGCGAAUUCUGCUGU [G3C G47A]	0.264
GGCGGCCACAGCAGAAGCGUUCACGUCGCGGCCCCUGUCAGAUUCUCGUGAAUCUGCGAAUUCUGCUGU [G3C G47C]	0.136
GGCGGCCACAGCAGAAGCGUUCACGGCGCGGCCCCUGUCAGAUUCUGGUGAAUCUGCGAAUUCUGCUGU [G3C U26G]	0.0558
GGCGGCCACAGCAGAAGCGUUCACGCCGCGGCCCCUGUCAGAUUCUGGUGAAUCUGCGAAUUCUGCUGU [G3C U26C]	0.0733
